Source: patent publication US8728472B2, “Antibodies that bind selectively to P25 and uses therefor” (The Board of Regents of the University of Texas System, priority 2009, dated 2014)
Entries after “also recorded” stand apart in the source; their conditions may differ.

Key:
p35 = biological target: T1, p35 (Mus musculus, UniProt P61809); experiment: Immunoblotting and immunostaining for p35; format: binding; conditions: immunoblot
T1 construct: from tissue; host or cells: striatal homogenates of p25-GFP over-expressing mice
T1 sequence (P61809 whole entry): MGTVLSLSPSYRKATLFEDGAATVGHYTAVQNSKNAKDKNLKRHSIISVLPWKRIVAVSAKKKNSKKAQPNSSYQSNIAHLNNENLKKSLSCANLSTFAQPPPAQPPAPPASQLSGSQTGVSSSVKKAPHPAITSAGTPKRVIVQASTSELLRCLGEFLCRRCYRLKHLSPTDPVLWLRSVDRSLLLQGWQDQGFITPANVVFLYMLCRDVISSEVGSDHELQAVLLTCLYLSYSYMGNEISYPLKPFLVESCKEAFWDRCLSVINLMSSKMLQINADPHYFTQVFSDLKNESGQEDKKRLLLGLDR
Description: (§1) Cdk5/p25 proteins (FIG. 2A) were co-expressed in Sf9 insect cells from a Baculovirus vector (pBAC4X-1) encoding the genes for the human proteins. […] The proteins were absorbed to a Ni-NTA column, eluted and further purified by FPLC S-sepharose HP column chromatography. Mice received intrasplenic injections of pure Cdk5/p25 conjugated to biodegradable microparticles to optimize antigen presentation. ELISA assays were used to initially screen mice sera for antibody production using pure Cdk5/p25 followed by Western blotting of the pure Cdk5/p25 and striatal cell lysates from a p25 (p25-GFP) over-expressing mouse line (FIG. 2B). When both assays yielded positive results, a hemisplenectomy was performed and B cells were fused with SP2/0-IL6 myeloma cells to make hybridomas. Hybridoma culture supernatants were screened by ELISA, immunoblotting of pure protein (FIG. 2A), and immunohistochemical staining of HEK293T cultured cells transfected with Cdk5, p35, Cdk5/p35, p25, Cdk5/p25, or negative control (blank) eukaryotic expression plasmids (FIG. 2C). Hybridoma lines producing antibodies selective for p25 were re-derived and screens were repeated.
(§2) Abs to p35, DARPP-32 (Nishi et al., 1997), GFAP, and p25 were used to stain rat coronal cryosections (20 μm) from control and stroked hemispheres. […] See Methods for further details.

p25 [1] = experiment: Immunoblotting and immunostaining for p25 (p25-GFP lysates, transfected HEK293T cells, ischemic tissue); format: binding
Description: as §1, §2

p25 [2] = biological target: T2, p25 (Rattus norvegicus, UniProt P61810); experiment: as above; format: binding; conditions: compared with commercial p35/p25 Ab
T2 construct: cleaves p35, thereby removing the first 100 amino acids to produce p25; expressed in transfected cells; host or cells: HEK293T; also purified Sf9 protein, p25-GFP transgenic mouse striatum, rat ischemic brain and neurons
T2 sequence (P61810 99-307): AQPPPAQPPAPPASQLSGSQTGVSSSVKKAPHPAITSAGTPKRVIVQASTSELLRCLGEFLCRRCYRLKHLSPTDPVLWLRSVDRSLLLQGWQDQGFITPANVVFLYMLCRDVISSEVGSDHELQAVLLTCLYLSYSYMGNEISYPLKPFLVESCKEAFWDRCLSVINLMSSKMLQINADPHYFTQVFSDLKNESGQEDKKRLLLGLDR
Description: as §1, §2

Cdk5/p25 = biological target: T3, Cdk5/p25 (Homo sapiens, UniProt Q15078); experiment: Inhibition of Cdk5/p25 kinase activity by monoclonal antibody; format: biochemical; conditions: FIG. 4
T3 construct: cleaves p35, thereby removing the first 100 amino acids to produce p25
T3 sequence (Q15078 99-307 limits assumed): as the sequence (P61810 99-307) above, with V23G, I35V counted along it

PKA = experiment: Effect of monoclonal antibody on PKA activity; format: biochemical; conditions: FIG. 4
[3] = listed as anti-p25 monoclonal antibody

B1: 1C4: monoclonal antibody binding p25 but not p35, produced by hybridoma cell line 1C4 (ATCC PTA-8555) (antibody, V domains shown)
VH: QIQLEESGPELRKPGETVRISCKASGYTFTTAGMQWVQKMPGTGLKWIGWINTHSGVPKYAGEFTGRFDFSLETSASTAYLQIVNLKNEDTATYFCARYGKFGEMDYWGQGTSVTVSS
VL: IVMTQSPASLAVSLGQRATISCRSSETVDSDGNSFMHWYQQKPGQSPKLLLYLASTLESGVPARFSGSGSRTDFTLTIDPVEADDAATYYCHQNNEDPTFGGGTKLEIKR
reactivity with p35 (p35): does not react with p35 at all | detection of p25 (p25 [1]; immunoblot of lysates from GFP-p25 over-expressing mice, focal ischemia in brain slices and cultured neurons, listed as anti-p25 monoclonal antibody): detects transgenic p25-GFP; also recorded: strongly detects p25 generated in response to focal ischemia | staining of cells transfected with expression vectors (p25 [1]; transfected cells, p25 vs p35 expression vector): only stains cells transfected with an expression vector for p25 but not p35 | sensitivity of detection of p25 generated by MCAO (p25 [2]): greater sensitivity than a commercial p35/p25 Ab | inhibition of Cdk5/p25 activity (Cdk5/p25): almost completely inhibits Cdk5 activity | inhibition of Cdk5/p25 activity (Cdk5/p25; [3]): inhibits Cdk5/p25 activity | effect on PKA activity (PKA): no effect on PKA | effect on PKA activity (PKA; [3]): little or no effect on PKA activity
